Measured values reported in patent US20220204611A1 (Amgen, published 2022).
Where a chain is given by its changes, count along the chain named.

T1: human TREM2 (human, UniProt Q9NZC2 19-174, limits assumed)
T1 sequence: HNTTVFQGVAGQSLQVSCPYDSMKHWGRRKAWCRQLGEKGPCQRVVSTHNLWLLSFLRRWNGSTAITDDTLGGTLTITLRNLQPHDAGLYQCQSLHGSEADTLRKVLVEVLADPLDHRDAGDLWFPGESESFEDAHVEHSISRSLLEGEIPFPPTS

B1: V65 (Fab, V domains shown)
VH: EVQLVQSGAEVKKPGESLKISCKGSGYSFTSYWIAWVRQMPGKGLEWMGIIYPGDSDTRYSPSFQGQVTISADKSISTAYLQWSSLKASDTAMYFCARSRTFYYDSSDYFDYWGQGTLVTVSS
VL: DIQMTQSPSSVSASVGDRVTITCRASQGISSWLAWYQQKPGKAPKLLIYAASSLQNGVPSRFSGSGSGTDFTLTISSLQPEDFATYFCQQADSFPRTFGQGTKLEIK
B2: V4 (Fab, V domains shown)
VH: B1 VH with T30G, Y60V
VL: B1 VL with S53R, F94Y
B3: V25 (Fab, V domains shown)
VH: B1 VH with T30G, I50L
VL: B1 VL with Q55A, F94M
B4: V63 (Fab, V domains shown)
VH: B1 VH with T30R
VL: B1 VL with N56R, S93R
B5: V2 (Fab, V domains shown)
VH: B1 VH with Y27S, S56G
VL: B1 VL with L54R, S93R
B6: V48 (Fab, V domains shown)
VH: B1 VH with T30G, T58V, S99M
VL: B1 VL with N56T, F94L
B7: V16 (Fab, V domains shown)
VH: B1 VH with F29M, S56G
VL: B1 VL with S53N
B8: V24 (Fab, V domains shown)
VH: B1 VH with T58V
VL: B1 VL with N56K, R96H
B9: V49 (Fab, V domains shown)
VH: B1 VH with T30N, I50T, Y60L
VL: B1 VL with L54R, F94Y
B10: V17 (Fab, V domains shown)
VH: B1 VH with T30G
VL: B1 VL with L54R, F94S
B11: V26 (Fab, V domains shown)
VH: B1 VH with A35G, I50T, S99Q, F102M, Y112A
VL: B1 VL with N56R, F94Y
B12: V41 (Fab, V domains shown)
VH: B1 VH with I50T, S99Q
VL: B1 VL
B13: V1 (Fab, V domains shown)
VH: B1 VH with Y32S
VL: B1 VL with Q55T, F94Y
B14: V27 (Fab, V domains shown)
VH: B1 VH with S61A, A97V
VL: B1 VL with N56R
B15: V15 (Fab, V domains shown)
VH: B1 VH with T30A, I50T
VL: B1 VL with S53W, F94Y
B16: V51 (Fab, V domains shown)
VH: B1 VH with T58V, S99G, Y112N
VL: B1 VL with L54R
B17: V36 (Fab, V domains shown)
VH: B1 VH with I34L
VL: B1 VL with L54R, F94Y
B18: V53 (Fab, V domains shown)
VH: B1 VH with S63H, S99Q
VL: B1 VL
B19: V40 (Fab, V domains shown)
VH: B1 VH with T30G, T58V, S99Q, F110S
VL: B1 VL with N56L, S93R
B20: V14 (Fab, V domains shown)
VH: B1 VH with T30G, S56Q, S99G
VL: B1 VL with S53R
B21: V72 (Fab, V domains shown)
VH: B1 VH with A35G, S99G
VL: B1 VL with Q55V, F94Y
B22: V5 (Fab, V domains shown)
VH: B1 VH with I50T, S99Q
VL: B1 VL with F94H
B23: V62 (Fab, V domains shown)
VH: B1 VH with T30G, S61A, S99Q, D108G
VL: B1 VL with N56R, Q89G
B24: V52 (Fab, V domains shown)
VH: B1 VH with T30E, S99G
VL: B1 VL with N56R, S93R
B25: V3 (Fab, V domains shown)
VH: B1 VH with T30A, G66D, S99G
VL: B1 VL with L54R, S93R
B26: V37 (Fab, V domains shown)
VH: B1 VH with F29H, Q65A
VL: B1 VL with N56W, F94Y
B27: V60 (Fab, V domains shown)
VH: B1 VH with S28H, T58V, S99Q, F110S
VL: B1 VL with N56R, Q89G
B28: V29 (Fab, V domains shown)
VH: B1 VH with T30K, S99Q
VL: B1 VL
B29: V61 (Fab, V domains shown)
VH: B1 VH with T30S, S61N, S99G
VL: B1 VL with Q55V, F94L
B30: V13 (Fab, V domains shown)
VH: B1 VH with T30G, P62A, S99G
VL: B1 VL with N56G, F94M
B31: V94 (Fab, V domains shown)
VH: B1 VH with S99Q
VL: B1 VL with S52A

Target: T1, human TREM2
Assay: yeast-displayed Fab FACS, 2nd screen 2 nM

Row | binding signal fold over 6E7 parental | Binder
1 | 1.29 fold | B1
2 | 5.88 fold | B2
3 | 3.15 fold | B3
4 | 4.91 fold | B4
5 | 2.23 fold | B5
6 | 2.3 fold | B6
7 | 3.57 fold | B7
8 | 1.42 fold | B8
9 | 5.02 fold | B9
10 | 4.22 fold | B10
11 | 2.83 fold | B11
12 | 0.58 fold | B12
13 | 1.29 fold | B13
14 | 5.67 fold | B14
15 | 4.72 fold | B15
16 | 1.83 fold | B16
17 | 4 fold | B17
18 | 0.66 fold | B18
19 | 3.41 fold | B19
20 | 2.57 fold | B20
21 | 2.5 fold | B21
22 | 1.25 fold | B22
23 | 1.87 fold | B23
24 | 1.78 fold | B24
25 | 1.95 fold | B25
26 | 3.69 fold | B26
27 | 3.35 fold | B27
28 | 0.84 fold | B28
29 | 3.63 fold | B29
30 | 1.15 fold | B30

Target: T1, human TREM2
Assay: yeast-displayed Fab FACS, 2nd screen 100 nM

Row | binding signal fold over 6E7 parental | Binder
31 | 0.87 fold | B31

Target: T1, human TREM2
Assay: yeast-displayed Fab FACS, 1st screen 10 nM

Row | binding signal fold over 6E7 parental | Binder
32 | 2.05 fold | B1
33 | 6 fold | B2
34 | 4.23 fold | B3
35 | 3.76 fold | B4
36 | 2.55 fold | B5
37 | 2.42 fold | B6
38 | 4.01 fold | B7
39 | 2.64 fold | B8
40 | 6.51 fold | B9
41 | 5.37 fold | B10
42 | 3.57 fold | B11
43 | 1.74 fold | B12
44 | 1.68 fold | B13
45 | 5.5 fold | B14
46 | 5.23 fold | B15
47 | 2.81 fold | B16
48 | 3.38 fold | B17
49 | 1.25 fold | B18
50 | 4.48 fold | B19
51 | 4.71 fold | B20
52 | 3.64 fold | B21
53 | 2.73 fold | B22
54 | 2.49 fold | B23
55 | 3 fold | B24
56 | 1.97 fold | B25
57 | 3.46 fold | B26
58 | 3.26 fold | B27
59 | 1.53 fold | B28
60 | 5.08 fold | B29
61 | 1.31 fold | B30

Target: T1, human TREM2
Assay: yeast-displayed Fab FACS, 1st screen 110 nM

Row | binding signal fold over 6E7 parental | Binder
62 | 0.31 fold | B31

Target: T1, human TREM2
Assay: yeast-displayed Fab FACS, 2nd screen 10 nM

Row | binding signal fold over 6E7 parental | Binder
63 | 2.75 fold | B1
64 | 5.51 fold | B2
65 | 4.7 fold | B3
66 | 3.71 fold | B4
67 | 2.9 fold | B5
68 | 2.54 fold | B6
69 | 4.04 fold | B7
70 | 2.9 fold | B8
71 | 6.58 fold | B9
72 | 5.51 fold | B10
73 | 3.47 fold | B11
74 | 1.72 fold | B12
75 | 1.92 fold | B13
76 | 5.69 fold | B14
77 | 4.78 fold | B15
78 | 3.18 fold | B16
79 | 3.44 fold | B17
80 | 1.17 fold | B18
81 | 4.16 fold | B19
82 | 4.64 fold | B20
83 | 4.01 fold | B21
84 | 2.84 fold | B22
85 | 2.89 fold | B23
86 | 3.09 fold | B24
87 | 2.24 fold | B25
88 | 3.49 fold | B26
89 | 3.63 fold | B27
90 | 1.67 fold | B28
91 | 5.22 fold | B29
92 | 1.35 fold | B30
